Measured values: publication PMC1075921 (Nucleic Acids Research, 2005)
Residue numbers refer to the chain shown, from its start. In names and notes the source's numbering stands. Each block holds one binder with its values, some of them ahead of it.

Target: transactivation domain of human p53 (residues 1–73) (human, UniProt P04637 1-73, R72)
Assay: NMR titration

mean intensity ratio (free/with partner) of p53TAD residues 42–56: 35 ± 34
B1: hRPA70_(1–168) Y118A mutant (domain or fragment)
chain: MVGQLSEGAIAAIMQKGDTNIKPILQVINIRPITTGNSPPRYRLLMSDGLNTLSSFMLATQLNPLVEEEQLSSNCVCQIHRFIVNTLKDGRRVVILMELEVLKSAEAVGVKIGNPVPANEGLGQPQVAPPAPAASPAASSRPQPQNGSSGMGSTVSKAYGASKTFGKA

intensity ratio (free/with partner) of all p53TAD residues except I50-F54: < 2
mean intensity ratio (free/with partner) of p53TAD residues I50-F54: 3.3 ± 1.7
B2: hRPA70_(1–168) R41E mutant (domain or fragment)
chain: B1 chain with R41E, A118Y
